# In PMC5063997, “Engineered Tissue Inhibitor of Metalloproteinases-3 Variants Resistant to Endocytosis Have Prolonged Chondroprotective Activity*” (The Journal of Biological Chemistry, 2016):
# Substitutions are numbered along the chain they refer to. Names and notes keep the numbering of the source.
# T1: ADAMTS-5 lacking the C-terminal thrombospondin domain (UniProt Q9UNA0 262-874)
# T1 construct: ADAMTS-5 without its C-terminal thrombospondin domain
# T1 sequence (looked up): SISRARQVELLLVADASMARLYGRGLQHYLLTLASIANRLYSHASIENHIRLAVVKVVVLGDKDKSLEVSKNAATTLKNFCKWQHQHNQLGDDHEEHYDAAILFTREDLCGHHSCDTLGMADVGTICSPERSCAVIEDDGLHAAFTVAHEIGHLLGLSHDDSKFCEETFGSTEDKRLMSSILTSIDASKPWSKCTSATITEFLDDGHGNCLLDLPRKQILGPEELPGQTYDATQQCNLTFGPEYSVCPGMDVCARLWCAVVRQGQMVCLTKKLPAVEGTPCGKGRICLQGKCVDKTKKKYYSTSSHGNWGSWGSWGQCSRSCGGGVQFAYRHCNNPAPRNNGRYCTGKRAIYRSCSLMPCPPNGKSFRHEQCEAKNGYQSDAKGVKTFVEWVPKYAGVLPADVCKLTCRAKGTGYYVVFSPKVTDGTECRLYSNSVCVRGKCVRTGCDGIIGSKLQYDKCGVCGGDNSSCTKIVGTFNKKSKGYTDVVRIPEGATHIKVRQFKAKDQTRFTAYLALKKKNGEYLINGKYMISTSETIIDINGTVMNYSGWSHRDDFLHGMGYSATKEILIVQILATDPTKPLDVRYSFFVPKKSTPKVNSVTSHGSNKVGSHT
# T2: ADAMTS-4 lacking the C-terminal spacer domain (UniProt O75173 213-685)
# T2 construct: ADAMTS-4 without its C-terminal spacer domain
# T2 sequence (looked up): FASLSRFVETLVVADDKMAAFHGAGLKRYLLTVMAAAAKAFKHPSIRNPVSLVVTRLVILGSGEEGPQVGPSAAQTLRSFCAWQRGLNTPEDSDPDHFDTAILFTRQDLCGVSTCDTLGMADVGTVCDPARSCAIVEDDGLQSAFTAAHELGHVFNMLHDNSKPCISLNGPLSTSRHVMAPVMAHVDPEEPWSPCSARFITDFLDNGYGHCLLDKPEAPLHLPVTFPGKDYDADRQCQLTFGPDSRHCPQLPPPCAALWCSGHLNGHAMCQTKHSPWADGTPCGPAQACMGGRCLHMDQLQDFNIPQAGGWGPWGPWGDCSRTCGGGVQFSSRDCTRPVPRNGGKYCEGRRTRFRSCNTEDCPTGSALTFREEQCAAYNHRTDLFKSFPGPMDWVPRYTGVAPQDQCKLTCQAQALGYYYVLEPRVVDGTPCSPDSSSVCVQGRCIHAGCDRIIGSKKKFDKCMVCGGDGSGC
# T3: catalytic domain of MMP-1 (MMP-1ΔC) (UniProt P03956 100-269)
# T3 construct: MMP-1, catalytic domain
# T3 sequence (looked up): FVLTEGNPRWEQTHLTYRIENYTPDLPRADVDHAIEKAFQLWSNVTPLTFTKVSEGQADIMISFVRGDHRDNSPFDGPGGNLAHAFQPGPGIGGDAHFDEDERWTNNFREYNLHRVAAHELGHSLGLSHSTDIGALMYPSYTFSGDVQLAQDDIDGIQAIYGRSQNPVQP
# B1: wild-type TIMP-3 (tissue inhibitor of metalloproteinases-3), C-terminally FLAG-tagged (natural protein, UniProt P35625 24-211, looked up)
# chain: CTCSPSHPQDAFCNSDIVIRAKVVGKKLVKEGPFGTLVYTIKQMKMYRGFTKMPHVQYIHTEASESLCGLKLEVNKYQYLLTGRVYDGKMYTGLCNFVERWDQLTLSQRKGLNYRYHLGCNCKIKSCYYLPCFVTSKNECLWTDMLSNFGYPGYQSKHYACIRQKGGYCSWYRGWAPPDKSIINATDP
# notes: TIMP-3, secreted into the conditioned medium; source: for the screen also transiently transfected, conditioned medium dialyzed against TBS; not shown: FLAG, C-terminal, kept
# B2: TIMP-3 K42A/K110A, C-terminally FLAG-tagged (natural protein, UniProt P35625 24-211, looked up)
# chain: B1 chain with K42A, K110A
# notes: TIMP-3, secreted into the conditioned medium; The discussion once calls this mutant K45A/K110A; source: for the screen also transiently transfected, conditioned medium dialyzed against TBS; not shown: FLAG, C-terminal, kept
# What was measured:
# [1] = target: T4, catalytic domain of MMP-3 (MMP-3ΔC) (UniProt P08254 100-272); experiment: enzyme inhibition under equilibrium conditions (Ki(app), tight binding equation); apparent; metalloproteinase (0.5-1 nM) preincubated with wild-type or mutant TIMP-3 (0.25-25 nM) 1 h at 37 °C, residual activity on fluorescence-quenched substrates; 50 mM Tris-HCl pH 7.5, 150 mM NaCl, 10 mM CaCl2, 0.05% Brij 35, 0.02% NaN3; settings: both partners purified
# T4 construct: MMP-3, catalytic domain
# [2] = target: T1, ADAMTS-5 lacking the C-terminal …; experiment: as above; settings: both partners purified
# [3] = target: T5, catalytic domain of MMP-2 (MMP-2ΔC) (UniProt P08253 110-444); experiment: as above; settings: both partners purified
# T5 construct: MMP-2, catalytic domain
# [4] = target: T2, ADAMTS-4 lacking the C-terminal spacer …; experiment: as above; settings: both partners purified
# [5] = target: T3, catalytic domain of MMP-1 (MMP-1ΔC); experiment: as above; settings: both partners purified
# [6] = target: low density lipoprotein receptor-related protein 1 (LRP1), full-length (UniProt Q07954 20-4544); experiment: cell-based or functional assay
# ADAM17 ectodomain = target: T6, ADAM17 ectodomain (UniProt P78536 215-671); experiment: enzyme inhibition under equilibrium conditions (Ki(app), tight binding equation); apparent; ADAM17 preincubated with wild-type or mutant TIMP-3 (0.25-25 nM) 1 h at 37 °C, residual activity on a fluorescence-quenched substrate; 50 mM Tris-HCl pH 7.5, 25 mM NaCl, 10 mM CaCl2, 0.05% Brij 35, 0.02% NaN3; settings: both partners purified
# T6 construct: ADAM17, ectodomain; source: gift from Professor Gillian Murphy (University of Cambridge)
# [7] = target: T1, ADAMTS-5 lacking the C-terminal …; experiment: enzyme inhibition under equilibrium conditions (Ki(app), tight binding equation); apparent; ADAMTS-5 (0.5 nM) preincubated with TIMP-3 (0.5-10 nM) with heparin (100 nM) 1 h at 37 °C, residual activity 18 h at 37 °C; 50 mM Tris-HCl pH 7.5, 150 mM NaCl, 10 mM CaCl2, 0.05% Brij 35, 0.02% NaN3; settings: both partners purified
# T5 sequence (P08253 110-444, stated change not applied): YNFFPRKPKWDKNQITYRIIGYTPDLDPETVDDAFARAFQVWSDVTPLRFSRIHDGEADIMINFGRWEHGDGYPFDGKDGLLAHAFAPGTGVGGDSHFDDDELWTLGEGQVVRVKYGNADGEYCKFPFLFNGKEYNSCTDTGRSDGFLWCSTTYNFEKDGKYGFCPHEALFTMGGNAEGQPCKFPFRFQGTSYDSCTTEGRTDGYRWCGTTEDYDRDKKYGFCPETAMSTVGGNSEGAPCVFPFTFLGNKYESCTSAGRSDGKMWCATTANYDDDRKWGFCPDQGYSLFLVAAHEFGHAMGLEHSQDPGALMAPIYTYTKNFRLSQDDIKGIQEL
# T4 sequence (P08254 100-272, stated change not applied): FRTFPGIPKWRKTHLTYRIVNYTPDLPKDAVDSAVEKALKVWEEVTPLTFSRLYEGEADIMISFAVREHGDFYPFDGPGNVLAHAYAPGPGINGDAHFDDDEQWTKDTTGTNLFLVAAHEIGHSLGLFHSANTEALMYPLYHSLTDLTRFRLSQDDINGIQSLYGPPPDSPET
# T6 sequence (P78536 215-671): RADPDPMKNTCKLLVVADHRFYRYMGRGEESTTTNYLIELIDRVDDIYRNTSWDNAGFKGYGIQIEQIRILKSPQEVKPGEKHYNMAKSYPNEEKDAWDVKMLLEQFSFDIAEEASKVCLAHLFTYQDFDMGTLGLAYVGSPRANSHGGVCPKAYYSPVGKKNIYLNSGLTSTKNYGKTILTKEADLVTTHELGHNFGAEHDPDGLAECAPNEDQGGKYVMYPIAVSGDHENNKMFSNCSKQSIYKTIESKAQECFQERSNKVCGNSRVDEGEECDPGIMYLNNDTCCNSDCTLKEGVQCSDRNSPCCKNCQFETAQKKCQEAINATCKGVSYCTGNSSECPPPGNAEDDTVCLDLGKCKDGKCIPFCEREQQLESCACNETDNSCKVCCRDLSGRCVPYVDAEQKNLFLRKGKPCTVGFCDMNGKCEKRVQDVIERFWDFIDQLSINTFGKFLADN
binder,measurement,setting,value
B1,Ki,[1],1.2 nM
same,Ki,[2],1.27 nM
same,Ki,[3],0.6 nM
same,Ki,[4],0.19 nM
same,Ki,[5],1.2 nM
same,"half-life of loss from the medium of HTB94 chondrosarcoma cells (1 nM, 0-24 h, anti-FLAG immunoblot and densitometry)",[6],3.6 h
same,"half-life of uptake from the medium of LRP1 wild-type PEA10 cells (1 nM, 0-8 h); remained at the same level in the medium of LRP1-null PEA13 cells",[6],1.9 h
same,Ki,ADAM17 ectodomain,3.54 nM
B2,Ki,[1],1.4 nM
same,Ki,[2],1.12 nM
same,Ki,[3],0.6 nM
same,Ki,[4],0.24 nM
same,Ki,[5],0.6 nM
same,Ki,[7],1.2 nM
same,Ki,ADAM17 ectodomain,2.34 nM
